Measurements published in patent publication US20110236309A1.
One block for each binder: values may come before it.

Experiments:
[1] = biological target: T1, TGF-β3 (Homo sapiens (Human)) (UniProt P10600)
T1 sequence: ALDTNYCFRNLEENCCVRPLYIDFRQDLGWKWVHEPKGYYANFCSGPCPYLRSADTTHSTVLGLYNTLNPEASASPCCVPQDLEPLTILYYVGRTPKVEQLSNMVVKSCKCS

[2] = biological target: TGF-β1 (Homo sapiens (Human)) (UniProt P01137)
[3] = biological target: T1, TGF-β3 (Homo sapiens (Human)); remark: listed apart in the source
[4] = biological target: TGF-β1 (Homo sapiens (Human)) (UniProt P01137); remark: listed apart in the source

TGF-β1 (Homo sapiens (Human)), sequence (P01137 279-390 limits assumed): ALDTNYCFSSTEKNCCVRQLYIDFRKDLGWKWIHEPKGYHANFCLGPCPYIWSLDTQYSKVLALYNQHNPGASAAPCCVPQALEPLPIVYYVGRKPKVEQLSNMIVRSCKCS

- IC50 for TGF-β3 (neutralization, Mv1Lu luciferase reporter cells) [1]: 0.336 nM
- IC50 for TGF-β1 (neutralization, Mv1Lu luciferase reporter cells) [2]: 1.36 nM
- fold potency against TβRII-ED (neutralization, Mv1Lu luciferase reporter cells) [3]: 100 fold
- fold potency against TβRII-ED (neutralization, Mv1Lu luciferase reporter cells) [4]: 100 fold
B1: (TβRII)^2 homo-bivalent single-chain recombinant trap (designed binder, from a related filing)
chain: TIPPEQKLISEEDLLHVQKSVNNDMIVTDNNGAVKFPQLCKFCDVRFSTCDNQKSCMSNCSITSICEKPQEVCVAVWRKNDENITLETVCHDPKLPYHDFILEDAASPKCIMKEKKKPGETFFMCSCSSDECNDNIIFSEEYNTSNPDGGRHVQKSVNNDMIVTDNNGAVKFPQLCKFCDVRFSTCDNQKSCMSNCSITSICEKPQEVCVAVWRKNDENITLETVCHDPKLPYHDFILEDAASPKCIMKEKKKPGETFFMCSCSSDECNDNIIFSEEYNTSNPDHHHHHH

- IC50 for TGF-β3 (neutralization, Mv1Lu luciferase reporter cells) [1]: 0.045 nM
- IC50 for TGF-β1 (neutralization, Mv1Lu luciferase reporter cells) [2]: 0.098 nM
- fold potency against TβRII-ED (neutralization, Mv1Lu luciferase reporter cells) [3]: 1000 fold
- fold potency against TβRII-ED (neutralization, Mv1Lu luciferase reporter cells) [4]: 1000 fold
B2: (TβRIIb)^2 homo-bivalent single-chain recombinant trap (designed binder, from a related filing)
chain: APMAEGGGQNHHHHHHHHGGSFNPRIPPHVQKSVNNDMIVTDNNGAVKFPQLCKFCDVRFSTCDNQKSCMSNCSITSICEKPQEVCVAVWRKNDENITLETVCHDPKLPYHDFILEDAASPKCIMKEKKKPGETFFMCSCSSDECNDNIIFSEEYNTSNPDIPPHVQKSDVEMEAQKDEIICPSCNRTAHPLRHINNDMIVTDNNGAVKFPQLCKFCDVRFSTCDNQKSCMSNCSITSICEKPQEVCVAVWRKNDENITLETVCHDPKLPYHDFILEDAASPKCIMKEKKKPGETFFMCSCSSDECNDNIIFSEEYNTSNPD
